Assay results as given in paper doi:10.1101/660712 (bioRxiv, 2019).

Target: His-tagged CP47 (PSII core antenna protein CP47) (Synechocystis sp. PCC 6803, UniProt P05429 1-507)
Assay: AUC

Chain of His-tagged CP47 (PSII core antenna protein CP47) (P05429 whole entry): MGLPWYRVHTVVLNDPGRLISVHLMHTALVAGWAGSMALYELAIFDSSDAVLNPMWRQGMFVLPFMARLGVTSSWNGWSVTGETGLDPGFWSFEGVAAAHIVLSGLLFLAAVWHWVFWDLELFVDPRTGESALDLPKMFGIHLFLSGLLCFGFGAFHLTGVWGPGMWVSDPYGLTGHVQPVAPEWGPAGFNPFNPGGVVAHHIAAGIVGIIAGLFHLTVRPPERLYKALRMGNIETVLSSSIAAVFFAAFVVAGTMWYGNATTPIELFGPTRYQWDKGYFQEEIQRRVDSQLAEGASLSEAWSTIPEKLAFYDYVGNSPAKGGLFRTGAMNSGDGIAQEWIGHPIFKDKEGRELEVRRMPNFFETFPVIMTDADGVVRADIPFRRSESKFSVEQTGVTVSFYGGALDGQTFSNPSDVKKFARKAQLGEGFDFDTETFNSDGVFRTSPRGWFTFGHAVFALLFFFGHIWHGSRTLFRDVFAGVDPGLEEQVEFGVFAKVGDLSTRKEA

B1: CP43 (PSII core antenna protein) (natural protein)
chain: not shown
Q: How did the “stoichiometry N” value turn out when B1 was run?
A: ~1
